# Measurements taken from PMC5902653 (The Analyst, 2018).
# Where two headings read alike, the source gives them in different places. *: point of attachment. FITC = O=C1OC2(c3ccc(O)cc3Oc3cc(O)ccc32)c2ccc(NC(=S)*)cc21; βAla = NCCC(=O)O
# Assays:
# Assay in all cases: cross-linking
# [1] = molecular target: heat shock protein 70 (Hsp70), labeled with AlexaFluor488 (UniProt P0DMV8)
# [2] = molecular target: T1, KIX domain of mouse CREB-binding protein (mouse, UniProt P45481 586-665)
# [3] = molecular target: T1, KIX domain of mouse CREB-binding protein; remark: listed apart in the source
# T1 sequence (P45481 586-665): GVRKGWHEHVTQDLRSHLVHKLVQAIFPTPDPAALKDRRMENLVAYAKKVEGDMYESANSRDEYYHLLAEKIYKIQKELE
# Sequence of bcl2 association athanogene 3 (Bag3) (O95817 whole entry): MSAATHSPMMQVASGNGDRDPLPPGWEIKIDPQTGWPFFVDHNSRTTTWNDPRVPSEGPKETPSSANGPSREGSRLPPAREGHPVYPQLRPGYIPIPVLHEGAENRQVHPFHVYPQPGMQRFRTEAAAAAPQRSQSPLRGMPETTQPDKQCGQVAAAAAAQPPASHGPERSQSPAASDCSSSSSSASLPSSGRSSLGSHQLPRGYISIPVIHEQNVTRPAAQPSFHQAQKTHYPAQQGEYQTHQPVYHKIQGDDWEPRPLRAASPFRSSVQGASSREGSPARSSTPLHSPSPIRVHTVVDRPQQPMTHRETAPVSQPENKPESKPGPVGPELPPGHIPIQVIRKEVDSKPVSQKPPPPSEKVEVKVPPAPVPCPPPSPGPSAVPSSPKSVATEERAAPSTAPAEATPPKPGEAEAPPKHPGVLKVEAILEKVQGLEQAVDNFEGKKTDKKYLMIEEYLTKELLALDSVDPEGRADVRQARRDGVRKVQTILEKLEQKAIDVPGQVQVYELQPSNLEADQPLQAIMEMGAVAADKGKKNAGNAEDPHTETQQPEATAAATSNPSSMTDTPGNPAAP
Kd [1],Molecule,further results
26 nM,bcl2 association athanogene 3 (Bag3) (from UniProt O95817 1-575) (natural protein),–
1200 nM,"heat shock protein 70 (Hsp70), labeled with AlexaFluor488 (from UniProt P0DMV8 1-641) (natural protein)",–
–,"{FITC-βAla}-KEKRIKELELLLMSTENELKGQQALW-NH2 (SMILES CC[C@H](C)[C@H](NC(=O)[C@H](CCCNC(=N)N)NC(=O)[C@H](CCCCN)NC(=O)[C@H](CCC(=O)O)NC(=O)[C@H](CCCCN)NC(=O)CCNC(=S)Nc1ccc2c(c1)C(=O)OC21c2ccc(O)cc2Oc2cc(O)ccc21)C(=O)N[C@@H](CCCCN)C(=O)N[C@@H](CCC(=O)O)C(=O)N[C@@H](CC(C)C)C(=O)N[C@@H](CCC(=O)O)C(=O)N[C@@H](CC(C)C)C(=O)N[C@@H](CC(C)C)C(=O)N[C@@H](CC(C)C)C(=O)N[C@@H](CCSC)C(=O)N[C@@H](CO)C(=O)N[C@H](C(=O)N[C@@H](CCC(=O)O)C(=O)N[C@@H](CC(N)=O)C(=O)N[C@@H](CCC(=O)O)C(=O)N[C@@H](CC(C)C)C(=O)N[C@@H](CCCCN)C(=O)NCC(=O)N[C@@H](CCC(N)=O)C(=O)N[C@@H](CCC(N)=O)C(=O)N[C@@H](C)C(=O)N[C@@H](CC(C)C)C(=O)N[C@@H](Cc1c[nH]c2ccccc12)C(N)=O)[C@@H](C)O) [c-Myb peptide, FITC labeled]",Kd [2]: 3100 ± 500 nM
–,"{FITC-βAla}-GTDKELSDLLDFSAMFS-NH2 (SMILES CSCC[C@H](NC(=O)[C@H](C)NC(=O)[C@H](CO)NC(=O)[C@H](Cc1ccccc1)NC(=O)[C@H](CC(=O)O)NC(=O)[C@H](CC(C)C)NC(=O)[C@H](CC(C)C)NC(=O)[C@H](CC(=O)O)NC(=O)[C@H](CO)NC(=O)[C@H](CC(C)C)NC(=O)[C@H](CCC(=O)O)NC(=O)[C@H](CCCCN)NC(=O)[C@H](CC(=O)O)NC(=O)[C@@H](NC(=O)CNC(=O)CCNC(=S)Nc1ccc2c(c1)C(=O)OC21c2ccc(O)cc2Oc2cc(O)ccc21)[C@@H](C)O)C(=O)N[C@@H](Cc1ccccc1)C(=O)N[C@@H](CO)C(N)=O) [E2A17 peptide, FITC labeled]",Kd [3]: 1100 ± 200 nM
